The values that follow come from the RNAGym collection of RNA variant scans (doi:10.7554/elife.80360).

The labels stand for the following.
B1: HDV Ribozyme (parent)
chain: GGCCGGCAUGGUCCCAGCCUCCUCGCUGGCGCCGGCUGGGCAACAUUCCGAGGGGACCGUCCCCUCGGUAAUGGCGAAUGGGACCCA

Variants of B1 are the subject of the data set. The data set is described as follows: self-cleavage, relative activity (ratio to wild type); higher = more cleavage; co-transcriptional.
On to GGCCGGCAUGGUCCCAGCCUCCUCGCUGUCGCCGGCUGGGCAACAUUCCGAGGGGACCGUCCCCUCGGUAAUGGUGAAUGGGACCCA [G29U C75U], for which the self-cleavage was 0.0767.
Regarding GGCCGGCAUGGUCCCAGCCUCCUCGCUGCCGCCGGCUGGGCAACAUUCCGAGGGGACCGUCCCCUCGGUAAUGGCGAAAGGGACCCA [G29C U79A], the self-cleavage is 0.147.
Next, GGCCGGCAUGGUCCCAGCCUCCUCGCUGCCGCCGGCUGGGCAACAUUCCGAGGGGACCGUCCCCUCGGUAAUGGCGAAGGGGACCCA [G29C U79G]: 0; GGCCGGCAUGGUCCCAGCCUCCUCGCUGUCGCCGGCUGGGCAACAUUCCGAGGGGAGCGUCCCCUCGGUAAUGGCGAAUGGGACCCA [G29U C57G]: 0.198; GGCCGGCAUGGUCCCAGCCUCCUCGCUGUCGCCGGCUGGGCAACAUUCCGAGGGGAACGUCCCCUCGGUAAUGGCGAAUGGGACCCA [G29U C57A]: 0.151.
For GGCCGGCAUGGUCCCAGCCUCCUCGCUGUCGCCGGCUGGGCAACAUUGCGAGGGGACCGUCCCCUCGGUAAUGGCGAAUGGGACCCA [G29U C48G] the value was 0.106.
For GGCCGGCAUGGUCCCAGCCUCCUCGCUGUCGCCGGCUGGGCAACAUUACGAGGGGACCGUCCCCUCGGUAAUGGCGAAUGGGACCCA [G29U C48A] the value was 0.117.
Regarding GGCCGGCAUGGUCCCAGCCUCCUCGCUGUCGCCGGCUGGGCAACCUUCCGAGGGGACCGUCCCCUCGGUAAUGGCGAAUGGGACCCA [G29U A45C], the self-cleavage turned out to be 0.113.
For GGCCGGCAUGGUCCCAGCCUCCUCGCUGUCGCCGGCUGGGCAACGUUCCGAGGGGACCGUCCCCUCGGUAAUGGCGAAUGGGACCCA [G29U A45G], the self-cleavage is 0.0923.
For GGCCGGCAUGGUCCCAGCCUCCUCGCUGUCGCCGGCUGGGCAACAUUCCGAGGGGACCGUCCCCUCGGUUAUGGCGAAUGGGACCCA [G29U A70U] the value was 0.0923; for GGCCGGCAUGGUCCCAGCCUCCUCGCUGUCGCCGGCUGGGCAACAUUCCGAGGGGACCGUCCCCUCGGUCAUGGCGAAUGGGACCCA [G29U A70C], 0.0791; for GGCCGGCAUGGUCCCAGCCUCCUCGCUGUCGCCGGCUGGGCAACAUUCCGAGGGGACCGUCCCCUCGGUGAUGGCGAAUGGGACCCA [G29U A70G], 0.0396.
Next, GGCCGGCAUGGUCCCAGCCUCCUCGCUGUCGCCGGCUGGGCAACAUUCCGAGGGGACCGUCCCCUCGGUAAUGGCGAAUGGGACCGA [G29U C86G]: 0.0346; GGCCGGCAUGGUCCCAGCCUCCUCGCUGUCGCCGGCUGGGCAACAUUCCGAGGGGACCGUCCCCUCGGUAAUGGCGAAUGGGACCAA [G29U C86A]: 0.169.
For GGCCGGCAUGGUCCCAGCCUCCUCGCUGCCGCCGGCUGGGCAACAUUCCGAGGGGACCGUCCCCUCGGUAAGGGCGAAUGGGACCCA [G29C U72G] the value was 0.208; for GGCCGGCAUGGUCCCAGCCUCCUCGCUGCCGCCGGCUGGGCAACAUUCCGAGGGGACCGUCCCCUCGGUAAAGGCGAAUGGGACCCA [G29C U72A], 0; for GGCCGGCAUGGUCCCAGCCUCCUCGCUGUCGCCGGCUGGGCAAGAUUCCGAGGGGACCGUCCCCUCGGUAAUGGCGAAUGGGACCCA [G29U C44G], 0.0326.
In the case of GGCCGGCAUGGUCCCAGCCUCCUCGCUGUCGCCGGCUGGGCAAAAUUCCGAGGGGACCGUCCCCUCGGUAAUGGCGAAUGGGACCCA [G29U C44A], the self-cleavage was 0.0297.
Regarding GGCCGGCAUGGUCCCAGCCUCCUCGCUGUCGCCGGCUGGGCAACAUUCGGAGGGGACCGUCCCCUCGGUAAUGGCGAAUGGGACCCA [G29U C49G], the self-cleavage amounted to 0.133.
For GGCCGGCAUGGUCCCAGCCUCCUCGCUGUCGCCGGCUGGGCAACAUUCCGAGGGGACCGUCCCCUCGGUAAUGGCGAAUGGGGCCCA [G29U A83G] the value was 0.0329; for GGCCGGCAUGGUCCCAGCCUCCUCGCUGUCGCCGGCUGGGCAACAUUCCGAGGGGACCGUCCCCUCGGUAAUGGCGAAUGGGCCCCA [G29U A83C], 0.0692.
Next, GGCCGGCAUGGUCCCAGCCUCCUCGCUGUCGCCGGCUGGGCAACAUUCCGAGGGGACCGUCCCCUGGGUAAUGGCGAAUGGGACCCA [G29U C66G]: 0.0652; GGCCGGCAUGGUCCCAGCCUCCUCGCUGUCGCCGGCUGGGCAACAUUCCGAGGGGACCGUCCCCUAGGUAAUGGCGAAUGGGACCCA [G29U C66A]: 0.201.
As for GGCCGGCAUGGUCCCAGCCUCCUCGCUGUCGCCGGCUGGGCAACAUUCCGAGGGGACCGUCCCGUCGGUAAUGGCGAAUGGGACCCA [G29U C64G], the self-cleavage is 0.0739.
Next, GGCCGGCAUGGUCCCAGCCUCCUCGCUGUCGCCGGCUGGGCAACAUUCCGAGGGGACCGUCCCUUCGGUAAUGGCGAAUGGGACCCA [G29U C64U]: 0.211; GGCCGGCAUGGUCCCAGCCUCCUCGCUGUCGCCGGCUGGGCAACAUUCCGAGGGGACCGUCCCAUCGGUAAUGGCGAAUGGGACCCA [G29U C64A]: 0.0665; GGCCGGCAUGGUCCCAGCCUCCUCGCUGUCGCCGGCUGGGCAACAUUCCGAGGGGGCCGUCCCCUCGGUAAUGGCGAAUGGGACCCA [G29U A56G]: 0.227.
As for GGCCGGCAUGGUCCCAGCCUCCUCGCUGUCGCCGGCUGGGCAACAUUCCGAGGGGCCCGUCCCCUCGGUAAUGGCGAAUGGGACCCA [G29U A56C], the self-cleavage is 0.202.
Next, GGCCGGCAUGGUCCCAGCCUCCUCGCUGUCGCCGGCUGGGCAACAUUCCGAGGGGACCGUCCCCUCGGUAAUGGCGUAUGGGACCCA [G29U A77U]: 0.117; GGCCGGCAUGGUCCCAGCCUCCUCGCUGUCGCCGGCUGGGCAACAUUCCGAGGGGACCGUCCCCUCGGUAAUGGCGCAUGGGACCCA [G29U A77C]: 0.13.
In the case of GGCCGGCAUGGUCCCAGCCUCCUCGCUGUCGCCGGCUGGGCAACAUUCCGAGGGGACCGUCCCCUCGGUACUGGCGAAUGGGACCCA [G29U A71C], the self-cleavage came out at 0.0302.
GGCCGGCAUGGUCCCAGCCUCCUCGCUGUCGCCGGCUGGGCAACAUUCCGAGGGGACCGUCCCCUCGGUAGUGGCGAAUGGGACCCA [G29U A71G]: the self-cleavage was determined as 0.162.
